# According to paper doi:10.1101/2023.07.13.548819, “Trafficking Machinery is Rapidly Primed to Facilitate Polarised IL-6 Secretion in Dendritic Cells” (bioRxiv, 2023):
# T1: cytosolic fragment of human STX4 (residues 1-271 with 272C) (human, UniProt Q12846 1-271)
# T1 construct: human STX4 lacking the transmembrane domain, residues 1-271; synthetic gene in NdeI/XhoI of pET28a(+); cysteine at position 272 ('residues 1-271 with 272C')
# T1 chain: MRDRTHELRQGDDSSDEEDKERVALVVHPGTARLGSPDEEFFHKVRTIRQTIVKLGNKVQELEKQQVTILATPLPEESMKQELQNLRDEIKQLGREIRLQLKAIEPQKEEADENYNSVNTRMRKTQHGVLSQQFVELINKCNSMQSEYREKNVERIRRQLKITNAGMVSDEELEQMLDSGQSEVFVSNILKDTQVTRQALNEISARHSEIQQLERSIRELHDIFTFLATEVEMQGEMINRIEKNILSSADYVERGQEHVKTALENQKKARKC
# Molecular target: T1, cytosolic fragment of human STX4 …
# Assay: SEC; 100 mM (so in the source) of each protein mixed, overnight at RT; ENrich SEC 70 column in 20 mM HEPES pH 7.4, 100 mM NaCl, 0.2 mM TCEP, 1% CHAPS
# Settings: both partners purified
binder,measurement,value
"NVDKVLERDQKLSELDDRADALQAGASQFETSAAKLKRKYWWKNLKMM (domain or fragment, UniProt P63045 49-96, looked up, VAMP2, C-terminal half of the SNARE motif, residues 49-96; construct described previously (Pobbati, Stein and Fasshauer, 2006); that fragment is, as far as I recall, from rat; also called C-terminal half of the SNARE motif of VAMP2 (residues 49-96)) [VAMP2(49-96)]",binding result,binds
